Measured values: publication PMC12589211, “Development of lisinopril radioconjugates for nuclear imaging of the angiotensin converting enzyme” (European Journal of Nuclear Medicine and Molecular Imaging, 2025)

Key:
[1] = in vivo; conditions: female, mouse, iv, 3 MBq; for tissue uptake at 1 h / tissue uptake at 3 h: total radioactivity
Experimental: All applicable international, national, and/or institutional guidelines for the care and use of laboratory animals were followed and the animal experiments were carried out according to the guidelines of the Swiss Regulations for Animal Welfare. Preclinical studies were ethically approved by the Cantonal Committee of Animal Experimentation and permitted by the responsible cantonal authorities (License N° 75743). Five-week-old female Crl: CD1-Foxn^nu (CD1/nude) mice were obtained from Charles River Laboratories (Sulzfeld, Germany) and fed with standard rodent chow ad libitum. The mice were subcutaneously inoculated with HEK-ACE (8 × 10^6 cells in 100 µL PBS) on the left shoulder and approximately one week later with HEK-ACE2 cells (4–6 × 10^6 cells in 100 µL PBS) on the right shoulder. Imaging and biodistribution studies were performed 2‒4 weeks later when the xenografts reached a size of 100–300 mm^3.
Mice were intravenously injected with 3 MBq [^67Ga]Ga-DOTA-LIS-02 or 3 MBq [^67Ga]Ga-NODAGA-LIS-02 (0.5 nmol, 100 µL) or 3 MBq [^44Sc]Sc-DOTA-LIS-02 (1 nmol, 100 µL) diluted in saline containing 0.05% bovine serum albumin (BSA). The mice were sacrificed 1 h and 3 h after administration of the respective radioconjugate. Selected tissues and organs were collected, weighed and counted for activity using the γ-counter. The results were listed as a percentage of the injected activity per gram of tissue mass (% IA/g), using counts of a defined volume of the original injection solution measured at the same time to calculate decay-corrected values. Statistical analysis was performed by applying a regular one-way ANOVA test with a Tukey’s multiple comparison post‐hoc test to compare the data of the radioconjugates. A p-value of < 0.05 was considered as statistically significant (GraphPad Prism software, version 8.3.1).

[2] = test system: human blood plasma proteins; test: in vitro; format: in vitro ADME; conditions: 30 min, 0.1 µM
Experimental: (§1) The n-octanol/phosphate buffered saline (PBS) distribution coefficients (logD values) of the radioconjugates (20 MBq/nmol) were determined using the shake-flask method, as previously reported (Supplementary material). The binding affinity of the radioconjugates (20 MBq/nmol) to serum proteins was assessed using an ultrafiltration assay as previously reported (Supplementary Material). Methods: The plasma protein binding of the radioconjugates (20 MBq/nmol) was assessed using mouse blood plasma (Lot N°: 32321, Rockland Immunochemicals, Inc., USA,; concentration of mouse serum albumin (MSA): ⁓550 µM) and human blood plasma (Stiftung Blutspende SRK Aargau-Solothurn, Switzerland; concentration of human serum albumin (HSA): ⁓800 µM), respectively. After incubation in mouse and human blood plasma (0.3 MBq in 150 μL) for 30 min at 37 °C, the samples were cooled on ice and diluted with ice-cold PBS (150 μL). The plasma protein-bound fraction was separated from the free (plasma protein-unbound) fraction of each sample by means of Amicon centrifugal filters (Amicon Ultra, 0.5 mL, Merck Millipore; cutoff 10 kDa) by ultrafiltration using a centrifuge (14000 rcf, 30 min at 4 °C). Afterwards, the filter inserts were inverted and centrifuged again (200 rcf) for 3 min to recover the protein-bound fraction of the radioconjugates. The activities of the free radioconjugates in the filtrate, as well as in the filter insert and the plasma protein-bound radioconjugate (bound), were counted for activity separately using a γ-counter (Wallac Wizard 1480, PerkinElmer). The total activity (total) was determined as the sum of the activities in the filtrate, filter insert, and protein-bound fractions. The percentage of radioconjugate bound to MSA and HSA was calculated as Abound/Atotal*100. The results were presented as average ± SD of 3 independent experiments.

[3] = test system: mouse blood plasma proteins; test: in vitro; format: in vitro ADME; conditions: 30 min, 0.1 µM
Experimental: as §1

[4] = physchem; format: physicochemical; conditions: pH 7.4, logD value (n-octanol/PBS distribution coefficient)
Experimental: The n-octanol/phosphate buffered saline (PBS) distribution coefficients (logD values) of the radioconjugates (20 MBq/nmol) were determined using the shake-flask method, as previously reported (Supplementary material). The binding affinity of the radioconjugates (20 MBq/nmol) to serum proteins was assessed using an ultrafiltration assay as previously reported (Supplementary Material). Methods: A fixed amount of the respective radioconjugate (0.5 MBq, 25 µL) was added to radio-immunoassay (RIA) tubes containing a mixture of PBS pH 7.4 (1475 µL) and n-octanol (1500 µL). After vortexing vigorously for 1 min, the tubes were centrifuged (560 rcf) for 6 min to obtain phase separation. The activity in the organic and aqueous phases was determined using a γ-counter (Wallac Wizard 1480, PerkinElmer). The distribution coefficients were expressed as the logarithm of the ratio of counts per minute (cpm) measured in the n-octanol phase to the cpm measured in the PBS pH 7.4 phase and indicated as the average of three independent measurements ± SD, each performed with five replicates.

[5] = in vitro; format: in vitro ADME; conditions: plasma
Experimental: as §1

[6] = CD1/nude (Crl:CD1-Foxn nu), 1 h
[7] = CD1/nude (Crl:CD1-Foxn nu), 3 h
[8] = Crl:CD1-Foxn^nu (CD1/nude), 1 h
[9] = Crl:CD1-Foxn^nu (CD1/nude), 3 h
[10] = human, Fraction bound to human blood plasma proteins
[11] = mouse, Fraction bound to mouse blood plasma proteins
[12] = CD1/nude (Crl:CD1-Foxn nu), Biodistribution, Bone
[13] = CD1/nude (Crl:CD1-Foxn nu), Biodistribution, HEK-ACE xgft
[14] = CD1/nude (Crl:CD1-Foxn nu), Biodistribution, Muscle
[15] = CD1/nude (Crl:CD1-Foxn nu), Biodistribution, Salivary glands
[16] = CD1/nude (Crl:CD1-Foxn nu), Biodistribution, Stomach
[17] = Crl:CD1-Foxn^nu (CD1/nude), Biodistribution, Blood
[18] = Crl:CD1-Foxn^nu (CD1/nude), Biodistribution, Heart
[19] = Crl:CD1-Foxn^nu (CD1/nude), Biodistribution, Kidneys
[20] = Crl:CD1-Foxn^nu (CD1/nude), Biodistribution, Lung
[21] = Crl:CD1-Foxn^nu (CD1/nude), Biodistribution, Spleen
[22] = CD1/nude (Crl:CD1-Foxn nu), Biodistribution, Intestines
[23] = CD1/nude (Crl:CD1-Foxn nu), Biodistribution, Liver

In the case of `O=C(O)CN1CCN(CC(=O)O)CCN(CC(=O)NCCCC[C@H](NC(=O)CCCCCCCNC(=O)NCCCC[C@H](N[C@@H](CCc2ccccc2)C(=O)O)C(=O)N2CCC[C@H]2C(=O)O)C(=O)O)CCN(CC(=O)O)CC1` [[^44Sc]Sc-DOTA-LIS-02] [metal not drawn], the “Biodistribution, Blood” value [1, 6] is reported as 0.24 ± 0.03 %IA/g, the “Biodistribution, Bone” value [1, 6] is reported as 0.17 ± 0.02 %IA/g and the “Biodistribution, Intestines” value [1, 6] is reported as 0.16 ± 0.02 %IA/g. The “Biodistribution, Liver” value [1, 6] was 0.14 ± 0.01 %IA/g, the “Biodistribution, Muscle” value [1, 6] was 0.16 ± 0.02 %IA/g and the “Biodistribution, Salivary glands” value [1, 6] was 0.19 ± 0.02 %IA/g. For the same compound, the “Biodistribution, Stomach” value [1, 6] was 0.22 ± 0.15 %IA/g, the “Biodistribution, Bone” value [1, 7] was 0.07 ± 0.03 %IA/g and the “Biodistribution, Intestines” value [1, 7] was 0.05 ± 0.01 %IA/g. The “Biodistribution, Liver” value [1, 7] was 0.09 ± 0.01 %IA/g, the “Biodistribution, Muscle” value [1, 7] was 0.07 ± 0.04 %IA/g and the “Biodistribution, Salivary glands” value [1, 7] was 0.09 ± 0.05 %IA/g. The “Biodistribution, Stomach” value [1, 7] was less than 0.05 %IA/g, the “Biodistribution, Heart” value [1, 8] was 0.18 ± 0.03 %IA/g and the “Biodistribution, Kidneys” value [1, 8] was 6.1 ± 0.8 %IA/g. For the same compound, the “Biodistribution, Lung” value [1, 8] was 2.0 ± 0.6 %IA/g, the “Biodistribution, Spleen” value [1, 8] was 0.14 ± 0.05 %IA/g and the “Biodistribution, Blood” value [1, 9] was less than 0.05 %IA/g. The “Biodistribution, Heart” value [1, 9] was less than 0.05 %IA/g, the “Biodistribution, Kidneys” value [1, 9] was 0.75 ± 0.07 %IA/g and the “Biodistribution, Lung” value [1, 9] was 0.13 ± 0.02 %IA/g. For the same compound, the “Biodistribution, Spleen” value [1, 9] was 0.06 ± 0.01 %IA/g, the “Fraction bound to human blood plasma proteins” value [2] was 49 ± 2% and the “Fraction bound to mouse blood plasma proteins” value [3] was 42 ± 4%.

Work on `O=C(O)CN1CCN(CC(=O)O)CCN(CC(=O)NCCCC[C@H](NC(=O)CCCCCNC(=O)NCCCC[C@H](N[C@@H](CCc2ccccc2)C(=O)O)C(=O)N2CCC[C@H]2C(=O)O)C(=O)O)CCN(CC(=O)O)CC1` [[^67Ga]Ga-DOTA-LIS-01, metal not drawn] yielded a logD [4] of -5.47 ± 0.17, a fraction unbound at 30 min, 0.1 µM [5, 10] of 0.55 and a fraction unbound at 30 min, 0.1 µM [5, 11] of 0.54.

`O=C(O)CN1CCN(CC(=O)O)CCN(CC(=O)NCCCC[C@H](NC(=O)CCCCCCCNC(=O)NCCCC[C@H](N[C@@H](CCc2ccccc2)C(=O)O)C(=O)N2CCC[C@H]2C(=O)O)C(=O)O)CCN(CC(=O)O)CC1` [[^67Ga]Ga-DOTA-LIS-02, metal not drawn] showed a tissue uptake at 1 h ([1]; CD1/nude (Crl:CD1-Foxn nu)) of 0.24 ± 0.01 %ID/g, a tissue uptake at 3 h ([1]; CD1/nude (Crl:CD1-Foxn nu)) of 0.08 ± 0.03 %ID/g and a tissue uptake at 1 h [1, 12] of 0.14 ± 0.01 %ID/g. The tissue uptake at 3 h [1, 12] was less than 0.05 %ID/g, the tissue uptake at 1 h [1, 13] was 14 ± 3 %ID/g and the tissue uptake at 3 h [1, 13] was 16 ± 1 %ID/g. The tissue uptake at 1 h [1, 14] was 0.1 ± 0.03 %ID/g, the tissue uptake at 3 h [1, 14] was less than 0.05 %ID/g and the tissue uptake at 1 h [1, 15] was 0.18 ± 0.04 %ID/g. The tissue uptake at 3 h [1, 15] was less than 0.05 %ID/g, the tissue uptake at 1 h [1, 16] was 0.16 ± 0.05 %ID/g and the tissue uptake at 3 h [1, 17] was less than 0.05 %ID/g. It also gave a tissue uptake at 1 h [1, 18] of 0.2 ± 0.06 %ID/g, a tissue uptake at 3 h [1, 18] of less than 0.05 %ID/g and a tissue uptake at 1 h [1, 19] of 6.3 ± 1 %ID/g. For the same compound, the tissue uptake at 3 h [1, 19] was 1.1 ± 0.2 %ID/g, the tissue uptake at 1 h [1, 20] was 2.4 ± 0.7 %ID/g and the tissue uptake at 3 h [1, 20] was 0.21 ± 0.05 %ID/g. It also gave a tissue uptake at 3 h [1, 21] of 0.05 ± 0.01 %ID/g, a fraction unbound at 30 min, 0.1 µM [5, 10] of 0.5 ± 0.01 and a fraction unbound at 30 min, 0.1 µM [5, 11] of 0.54.

With `O=C(O)CN1CCN(CC(=O)O)CCN(CC(=O)NCCCC[C@H](NC(=O)CCCCCCCNC(=O)NCCCC[C@H](N[C@@H](CCc2ccccc2)C(=O)O)C(=O)N2CCC[C@H]2C(=O)O)C(=O)O)CCN(CC(=O)O)CC1` [[^67Ga]Ga-DOTA-LIS-02] [metal not drawn] the “Biodistribution, Intestines” value [1, 7] was 0.22 ± 0.90 %IA/g, the “Biodistribution, Liver” value [1, 7] was 0.76 ± 0.13 %IA/g and the “Biodistribution, Spleen” value [1, 8] was 0.51 ± 0.65 %IA/g.

`O=C(O)CN1CCN(CC(=O)O)CCN(C(CCC(=O)NCCCC[C@H](NC(=O)CCCCCCCNC(=O)NCCCC[C@H](N[C@@H](CCc2ccccc2)C(=O)O)C(=O)N2CCC[C@H]2C(=O)O)C(=O)O)C(=O)O)CC1` (stereo partly shown) [[^67Ga]Ga-NODAGA-LIS-02, metal not drawn] showed a tissue uptake at 1 h ([1]; CD1/nude (Crl:CD1-Foxn nu)) of 0.08 ± 0.01 %ID/g, a tissue uptake at 3 h ([1]; CD1/nude (Crl:CD1-Foxn nu)) of less than 0.05 %ID/g and a tissue uptake at 1 h [1, 12] of less than 0.05 %ID/g. It also gave a tissue uptake at 3 h [1, 12] of less than 0.05 %ID/g, a tissue uptake at 1 h [1, 13] of 3.6 ± 0.9 %ID/g and a tissue uptake at 3 h [1, 13] of 5.2 ± 0.5 %ID/g. It also gave a tissue uptake at 1 h [1, 22] of 23 ± 6 %ID/g, a tissue uptake at 3 h [1, 22] of 2.3 ± 1 %ID/g and a tissue uptake at 1 h [1, 23] of 18 ± 1 %ID/g. For the same compound, the tissue uptake at 3 h [1, 23] was 9.6 ± 1.2 %ID/g, the tissue uptake at 1 h [1, 14] was 0.11 ± 0.12 %ID/g and the tissue uptake at 3 h [1, 14] was less than 0.05 %ID/g. The tissue uptake at 1 h [1, 15] was less than 0.05 %ID/g, the tissue uptake at 3 h [1, 15] was less than 0.05 %ID/g and the tissue uptake at 1 h [1, 16] was 0.31 ± 0.18 %ID/g. It also gave a tissue uptake at 3 h [1, 16] of 0.15 ± 0.1 %ID/g, a tissue uptake at 3 h [1, 17] of less than 0.05 %ID/g and a tissue uptake at 1 h [1, 18] of less than 0.05 %ID/g. It also gave a tissue uptake at 3 h [1, 18] of less than 0.05 %ID/g, a tissue uptake at 1 h [1, 19] of 1.7 ± 0.6 %ID/g and a tissue uptake at 3 h [1, 19] of 0.49 ± 0.13 %ID/g. For the same compound, the tissue uptake at 1 h [1, 20] was 0.63 ± 0.06 %ID/g, the tissue uptake at 3 h [1, 20] was 0.11 ± 0.04 %ID/g and the tissue uptake at 1 h [1, 21] was less than 0.05 %ID/g. It also gave a tissue uptake at 3 h [1, 21] of less than 0.05 %ID/g, a logD [4] of -5.04 ± 0.09 and a fraction unbound at 30 min, 0.1 µM [5, 10] of 0.46. The fraction unbound at 30 min, 0.1 µM [5, 11] was 0.51.
